The values below come from patent US20160280799A1 (Ablynx, published 2016).

For assay [1], the target named is T1, human EGFR on cells (Her-14 mouse fibroblasts expressing human EGFR; A431 cells) (human, UniProt P00533 25-1210).
T1 construct: whole, on cells; also called EGF receptor
Kind of assay: phage ELISA on Her-14 cells (mouse fibroblasts expressing human EGFR) against parental 3T3 cells, about 10^9 phage particles, anti-M13 gpVIII-HRP, OD 405nm. On the technique in general: ELISA stands for enzyme-linked immunosorbent assay.

Assay [2] concerns the target T2, active catalytic domain of MMP 1 (UniProt P03956 100-269).
T2 construct: domain: catalytic domain
T2 sequence (looked up): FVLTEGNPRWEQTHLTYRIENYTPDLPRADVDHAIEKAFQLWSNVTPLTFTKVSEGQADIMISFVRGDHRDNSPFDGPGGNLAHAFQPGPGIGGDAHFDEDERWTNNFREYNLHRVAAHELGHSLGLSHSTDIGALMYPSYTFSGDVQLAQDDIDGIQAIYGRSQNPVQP
Kind of assay: dot blot: periplasmic extract on 50 ng catalytic domain immobilized on Hybond C-extra, anti-c-myc detection.

In assay [3] the target is T3, active catalytic domain of MMP 2 (UniProt P08253 110-450).
T3 construct: domain: catalytic domain
Described as above.

In assay [4] the target is T4, active catalytic domain of MMP 3 (UniProt P08254 100-272).
T4 construct: domain: catalytic domain
The assay is described as above.

Assay [5] addresses T5, active catalytic domain of MMP 7 (UniProt P09237 95-267).
T5 construct: domain: catalytic domain
T5 sequence (looked up): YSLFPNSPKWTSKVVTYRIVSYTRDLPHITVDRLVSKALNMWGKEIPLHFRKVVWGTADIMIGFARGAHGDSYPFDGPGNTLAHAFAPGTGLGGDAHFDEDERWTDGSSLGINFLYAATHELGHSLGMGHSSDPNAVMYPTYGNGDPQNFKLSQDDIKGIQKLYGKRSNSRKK
Described as above.

The target of assay [6] is T6, active catalytic domain of MMP 9 (UniProt P14780 107-444).
T6 construct: domain: catalytic domain
The assay is described as above.

The target in assay [7] is active catalytic domain of MMP 13 (UniProt P45452 104-274). Described as above.
For assay [8], the target named is T7, human MMP-12 catalytic domain (human, UniProt P39900 106-263).
T7 construct: domain: catalytic domain; also called recombinant human catalytic domain of MMP12; human macrophage elastase
Kind of assay: dot blot: periplasmic extract on 50 ng human MMP-12 catalytic domain on PVDF membrane, anti-c-myc detection.

Assay [9] has as its target T8, human TNF-alpha (human, UniProt P01375 77-233).
T8 construct: also called TNFα; biotinylated TNF-alpha
Kind of assay: ELISA: biotinylated TNFα captured on neutravidin, detection R42.

The target in assay [10] is T8, human TNF-alpha. Kind of assay: ELISA: biotinylated TNFα captured on neutravidin, detection R42; sample treated with pepsin for 60 min at pH 2.
In assay [11] the target is T8, human TNF-alpha. Kind of assay: ELISA: biotinylated TNFα captured on neutravidin, detection R42; sample treated with pepsin for 60 min at pH 3.
Assay [12] deals with T8, human TNF-alpha. Kind of assay: ELISA: biotinylated TNFα captured on neutravidin, detection R42; sample treated with pepsin for 60 min at pH 4.
For assay [13], the target named is T7, human MMP-12 catalytic domain. Kind of assay: binding implied by inhibition in the colorimetric MMP-12 assay; selected on active MMP-12 on nitrocellulose.

Usually EC50 (read off the curve) stands for the concentration at which the effect is half-maximal. Higher therefore signals lower potency in that assay.

T8 sequence (P01375 77-233 limits assumed): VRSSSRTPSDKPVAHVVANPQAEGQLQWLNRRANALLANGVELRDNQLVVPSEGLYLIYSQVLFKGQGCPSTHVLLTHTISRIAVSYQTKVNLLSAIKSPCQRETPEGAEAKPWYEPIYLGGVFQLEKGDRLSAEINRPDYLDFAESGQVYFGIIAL
T6 sequence (P14780 107-444 limits assumed): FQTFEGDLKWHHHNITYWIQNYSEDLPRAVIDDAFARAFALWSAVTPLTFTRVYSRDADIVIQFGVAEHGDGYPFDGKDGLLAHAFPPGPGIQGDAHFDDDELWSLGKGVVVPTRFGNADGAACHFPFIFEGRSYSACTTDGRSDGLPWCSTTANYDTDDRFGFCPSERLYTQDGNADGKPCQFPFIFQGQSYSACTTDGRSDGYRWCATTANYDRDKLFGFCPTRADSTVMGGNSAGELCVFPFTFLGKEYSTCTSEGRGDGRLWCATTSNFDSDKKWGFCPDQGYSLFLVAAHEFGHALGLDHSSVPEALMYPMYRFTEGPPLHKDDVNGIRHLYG
T7 sequence (P39900 106-263 limits assumed): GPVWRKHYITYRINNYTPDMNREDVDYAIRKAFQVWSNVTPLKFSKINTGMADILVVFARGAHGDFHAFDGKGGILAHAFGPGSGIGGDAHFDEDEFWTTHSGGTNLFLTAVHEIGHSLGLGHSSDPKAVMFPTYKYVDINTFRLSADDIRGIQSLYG
T4 sequence (P08254 100-272 limits assumed): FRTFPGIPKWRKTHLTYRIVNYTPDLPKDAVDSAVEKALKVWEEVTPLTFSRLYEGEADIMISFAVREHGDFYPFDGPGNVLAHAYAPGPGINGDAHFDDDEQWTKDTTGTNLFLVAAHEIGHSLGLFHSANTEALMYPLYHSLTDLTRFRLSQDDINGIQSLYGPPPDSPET
T3 sequence (P08253 110-450 limits assumed): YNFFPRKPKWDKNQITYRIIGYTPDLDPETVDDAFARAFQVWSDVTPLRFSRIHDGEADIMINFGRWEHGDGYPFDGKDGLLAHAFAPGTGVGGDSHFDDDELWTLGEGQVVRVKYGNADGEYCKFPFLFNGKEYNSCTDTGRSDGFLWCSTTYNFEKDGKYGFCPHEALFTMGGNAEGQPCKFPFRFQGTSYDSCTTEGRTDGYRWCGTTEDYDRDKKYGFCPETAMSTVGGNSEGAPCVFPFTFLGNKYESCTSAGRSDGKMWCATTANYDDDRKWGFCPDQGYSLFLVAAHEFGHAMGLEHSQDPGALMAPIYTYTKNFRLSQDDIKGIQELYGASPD

B1: EGFR-4.21 (VHH)
VHH: EVQLVESGGGLVQAGGSLRLSCAVSGRTFSSMGWFRQAPGKEREFVATINLSGDRTDYADSVKGRFTISRDNPKNTVYLQMDSLEPEDSAVYYCAGTSLYPSNLRYYTLPGTYADWGQGTQVTVSS
In the case of B1, the binding result in assay [1] was “binds”.

B2: EGFR-B11 (VHH)
VHH: QVQLQDSGGGLVQAGGSLRLSCAASRFSSAQYAIGWFRQAPGKEREGVSYITFSGGPTGYADSVKGRFTVSRDNAKNTVYLQMNSLKPEDTAVYYCAARPYTRPGSMWVSSLYDNWGQGTQVTVSS
On to B2, for which, in assay [1], the binding result is “binds”.

B3: EGFR-1.38 (VHH)
VHH: QVQLQDSGGGLVQAGDSLRLSCAASGRSFGGYAMGWFRQAPGKEREFVAAISWSGGSTYYADSLKGRFTISRDNAKNTVYLQMNSLKPEDTALYYCAAGLRPSPNYNHERSYDYWGQGTQVTVSS
For the molecule B3, the binding result in assay [1] is reported as “binds”.

B4: EGFR-F11 (VHH)
VHH: QVQLQESGGRLVQAGGSLRLSCAASEHTFRGYAIGWFRQAPGKEREFVSSITYDGTLTNYADSVTGRFTISRDNAKNTVYLQMNSLKPEDTAVYVCAAGYSYRYTTLNQYDSWGQGTQVTVSS
As to B4, in assay [1], the binding result is reported as “binds”.

B5: MMP-12 P1-41 (VHH)
VHH: QVQLQDSGGGLVRTGDSLRLSCVVFGGTISTYAMGWFRRAPGKEREFVAAIDASGGFTEYADSVRGRFRIARDNPLSAVYLQMNSLKPEDTAFYYCAADKDRDTVVRFTTTPNEYDYWGQGTQVTVSS
For B5, the binding result in [2], in assay [3], in assay [4], in [5], in assay [6] and in assay [7] was “no binding” throughout. Besides, the binding result in assay [8] was “binds”.

B6: MMP-12 P1-1 (VHH)
VHH: QVQLQESGGGLVQPGGSLRLSCVASGFTFSDYPMAWVRQAPGKGLEWISVINSGGVNTSYAASVKGRFTISRDNAKNTLFLQMNSLKPEDTAVYYCAKYSLKNEQYWRGQGTQVTVSS
In the case of B6, the binding result in [2], in [3], in assay [4], in assay [5], in assay [6] and in assay [7] was “no binding” each time. Further, the binding result in [8] is recorded as “binds”.

B7: VHH#3E-His tag (VHH)
VHH: QVQLQESGGGLVQPGGSLRLSCAASGRTFSDHSGYTYTIGWFRQAPKEREFVARIYWSSGNTYYADSVKGRFAISRDIAKNTVDLTMNNLEPEDTAVYYCAARDGIPTSRSVESYNYWGQGTQVTVSS
notes: also called TNF3E; VHH TNF3E
Consider B7, for which the “EC50 (read off the curve)” value in [9] was roughly 0.02 µg/mL; in assay [10] it was roughly 0.03 µg/mL; in [11], roughly 0.01 µg/mL; in [12], roughly 0.009 µg/mL.

B8: MMP-12 P1-26 (VHH)
VHH: QVQLQESGGGLVRAGGSLRLSCVASGRTLSKYRMGWFRQFPGKERELVAEIEWKSSSTWYRDSVKGRFTISRDNAKNTVYLRMNSLKPEDTAVYYCAAATLGEPLVKYTYWGQGTQVTVSS
B8: the binding result in assay [2], in assay [3], in [4], in assay [5], in assay [6] and in assay [7] was “no binding” in each case. Also, the binding result in [8] is on record as “binds”.

B9: MMP-12 P1-44 (VHH)
VHH: QVQLQESGGGLVQPGGSLRLSCAASGFTFNNHWLYWVRQAQGKGLEWVSAINPGGSTVYLDSVKGRFTISRGNTKNTLYLQMNSLKSEDTAVYYCTKAMAWATDWDEYDLWGQGTQVTVSS
With B9, the binding result in assay [2], in assay [3], in assay [4], in assay [5], in [6] and in assay [7] was “no binding” in each case. In [8], the binding result is reported as “binds”.

B10: EGFR-IIIa5 (VHH)
VHH: EVQLVESGGGLVQAGGSLRLSCTASGRTFSSYAMGWFRQTPGKEREFVAAITSSGGSTYYADSVKGRFTISRDNAKSTMYLQMDSLMLDDTSVYYCAADSSRPQYSDSALRRILSLSNSYPYWGQGTQVTVSS
Turning to B10, in assay [1], the binding result is reported as “binds”.

B11: MMP-12 P5-29 (VHH)
VHH: QVQLQESGGGLVQAGGSLRLSCAASGRTFTVYTTGWFRQAPGKEREFVAAIDWSGSSTYYTDSVKGRFTISRDNTKNTVYLQMNSLKPEDTAVYYCAARDAIVGVTDTSGYRYWGQGTQVTVSS
notes: also called clone P5-29
For B11, in assay [13], the binding result is “binds”.
